Assay results from patent US20180280504A1, “GLYCAN-INTERACTING COMPOUNDS AND METHODS OF USE” (SIAMAB THERAPEUTICS, INC., priority 2014, published 2018).

How the values were obtained:
OV-90 cells = assay: Cell viability assay with secondary antibody-drug conjugate (2° ADC), OV-90; assay type: cell-based; conditions: with 2° ADC Fab αMFc-CL-MMAF
Description: Cell viability assays are performed to screen anti-STn antibodies of the present invention in the presence and absence of secondary antibody-drug conjugates (2° ADCs). The purpose of the screen is to identify the ability of each anti-STn antibody to inhibit cell growth. Antibodies with potent cell growth inhibition are used to design direct antibody-drug conjugates (ADCs). Using such secondary antibody-drug conjugates (2° ADCs) in cell-based cytotoxic assays can quickly pre-screen many ADC candidates against tumor cells. Based on the assay, a naked antibody candidate is directly added to cells in the presence of a 2° ADC. Internalization of the mAb/2° ADC complex into cells that express a high density of the targeted antigen can achieve a dose-dependent drug release within the cells, causing a cytotoxic effect to kill the cells (e.g., tumor cells), while cells expressing a low density of the targeted antigen are not affected (e.g., normal cells).
To perform cell viability assays, cell lines described in the present application (MDA-MB-231 parental, MDA-MB-231-STn+, and OV-90) are prepared and cultured for the assays. The cell culture is optimized for cell density by plating different densities of cells (e.g., 2,000, 4,000 and 7,500 per well) on a 96-well plate and observing the cell growth for 96 hours. The plating condition in which cells reach around 90% confluence at the end of the 96 hours is identified and the optimal cell number is then used in the final viability assay.
Duplicate or triplicate cell plates for each cell line are used for testing each antibody candidate.
For cell viability assays, data points are collected for each antibody candidate with duplicates for each data point. […]
Cell viabilities are measured by Cell-Titer Glo luminescence based assays.
Three anti-STn monoclonal antibodies (anti-STn antibodies S3F, 7G9 and 2D4) and an anti-EGFR monoclonal antibody LA22 were tested for internalization. […] Cell viability was then measured using CellTitreGlo Luminescent Cell Viability Assay (Promega, Madison, Wis.).

MDA-MD-231 STn cells = assay: Antibody internalization by fluorescence microscopy cell counts, STn+ cells; assay type: cell-based, human; conditions: 10 μg/ml antibody
Description: 6-well culture dishes were prepared with collagen-coated coverslips in the center of 4 wells of each dish. Wells were seeded with either 10^5 cells/well of MDA-MD-231 cells or with 10^6 cells/well of MDA-MD-231 STn cells (expressing STn) and cultured for 24 hours.
10 μg/ml antibody solutions were prepared in cell culture media. A separate solution was prepared for each of LA22 antibody (EMD Millipore, Burlington, Mass.) as a positive control for cell surface binding, S3F antibody (internal reagent) as a positive control for STn binding, 8C11, 2D4, 7G9, 10A5 and GB26.16 (QED Bioscience, San Diego, Calif.) as a negative control. Media were removed from wells and 100 μl of each antibody solution was added to separate coverslips. Coverslips were covered with parafilm and incubated for 30 minutes at 4° C. to allow antibody binding. Antibody solutions were removed by washing and fresh media was added to each well. Cells were incubated at 37° C. for 15, 30, 60 or 240 min to allow for antibody internalization.
After incubation, cells were prepared for microscopy. Cells were washed with PBS and fixed with paraformaldehyde fixation buffer (PFA) containing 3% paraformaldehyde and 2% sucrose in PBS for 15 minutes at room temperature. Cells were rinsed again in PBS and treated with blocking buffer made up of PBS with 1% bovine serum albumin (BSA) or with permeabilization buffer made up of blocking buffer with 0.1% TX-100. Cells were incubated in for 30 min at room temperature, rinsed in PBS and treated with secondary antibody (ALEXA FLUOR® 488-labeled goat-anti-mouse IgG) for 2 hours at room temperature. Cells were rinsed again in PBS and treated with DAPI nuclear stain for 5 min at room temperature in the dark. Cells were rinsed again in PBS and mounted for fluorescence microscopy.

[1] = test system: STn on bovine submaxillary mucin (BSM); assay: Anti-STn BSM ELISA, non-treated and periodate-treated wells; assay type: binding; conditions: BSM ELISA without and after periodate treatment
Description: Anti-STn serum titer is determined using a murine anti-STn bovine submaxillary mucin (BSM) ELISA together with serum profiles observed by glycan microarray. 96-well plates are coated with 1 μg/well of BSM and incubated overnight at 4° C. O-acetylation of BSM antigen is removed by treating wells with 0.1 M sodium hydroxide. Specific binding to STn is determined by treatment of wells with sodium periodate. Periodate treatment destroys the […] side chain of sialic acid; therefore antibodies raised against STn should not bind to periodate-treated wells. Wells are blocked with PBS 1% ovalbumin (OVA). Serum samples to be assayed are serially diluted in PBS 1% OVA. A commercially available mouse anti-STn monoclonal antibody, 3F1 (SBH Sciences, Natick, Mass.) is used as a positive control. This antibody is also serially diluted in PBS with 1% OVA. A pool of serum from naïve wild type mice is used for the preparation of negative control samples. Detection of anti-STn antibodies present in serum is determined using an HRP-conjugated polyclonal goat anti-mouse IgG antibody (Jackson Immunoresearch, West Grove, Pa.). The reaction is stopped by addition of sulfuric acid (1.6 M). Optical densities are measured at 490 nm using a Spectramax microplate reader (Molecular Devices, Sunnyvale, Calif.). The serum titer is obtained by comparison of OD values with a cutoff value calculated as two standard deviations above the mean of optical density values of the negative control. Sample tests are considered positive if the mean optical density value is greater than the cutoff value.
Binding affinities of 18D2 and 18C7 to STn were compared to commercially available anti-STn antibodies using the BSM ELISA assay described in Example 2. Commercial anti-STn antibodies used for comparison included 3F1 (SBH Sciences, Natick, Mass.,) TAG-72 clone B72.3 (Thermo Fisher Scientific, Waltham, Mass.,) TAG-72 clone CC49 (Santa Cruz Biotechnology, Santa Cruz, Calif.) as well as a negative control antibody against c-myc (Thermo Fisher Scientific, Waltham, Mass.). Each antibody was titrated using a 7-point, 1:5 serial dilution starting from 100 nM. Titrated antibodies were added to BSM ELISA plates containing wells that were non-treated or treated with sodium periodate. Antibody binding was determined using HRP-conjugated polyclonal goat anti-mouse IgG antibody (Jackson Immunoresearch Laboratories, West Grove, Pa.). The reaction was developed using an HRP substrate and stopped with 1.6 M sulfuric acid. Optical densities were measured at 490 nm using a Spectramax microplate reader. […] The half maximal effective concentration (EC50) for each antibody was calculated using a non-linear regression analysis carried out on periodate subtracted data.

B1: 7G9: anti-STn mouse monoclonal, IgG2b κ, from mouse #4407; VH SEQ ID NO: 12, VL SEQ ID NO: 9 (antibody, V domains shown)
VH: QVQLKESGPGLVAPSQNLSITCTVSGFSLTSYGVNWVRQPPGKGLEWLGVIWGDGSTNYHSALISRLIISKENSKSQVFLKLNSLQTNDTATYYCTKGFVYWGQGTLVTVSA
VL: QIVLTQSPAIMSASPGEKVTMTCSASSSVSYMHWYQQKSGTSPKRWIFDTSKLASGVPARFSGSGSGTSYSLTISSMEAEDAATYYCQQWSSNLLTFGAGTKLELK
activity in OV-90 cells (OV-90 cells): lack of effect | Net cell counts of cells showing positive internalization (MDA-MD-231 STn cells; 15 min at 37° C.): 458 | Net cell counts of cells showing positive internalization (MDA-MD-231 STn cells; 30 min at 37° C.): 154 | Net cell counts of cells showing positive internalization (MDA-MD-231 STn cells; 60 min at 37° C.): 126 | Net cell counts of cells showing positive internalization (MDA-MD-231 STn cells; 4 hr at 37° C.): 61 | Net cell counts of cells showing positive internalization (MDA-MD-231 STn cells; 4 hr, no perm): 145 | hybridoma screening: specificity for STn [1]: specific for STn
